Data on 21 molecules can be found in US12275778 (dated 2025).

B1: Fab combination 21 (antibody, V domains shown)
VH: EVQLQQSGPELVKPGASVKMSCKASGYTFTDYYMKWVKQSHGKSLEWIGDINPNNGETWYNQKFKDKATLTVDKSSSTAYMQLNSLTSEDSAVYYCATRYFDYWGQGTTLTVSS
VL: DIVLTQSPASLAVSLGQRATISCKASQSVDYDGTSYMNWFQQKAGQPPKRLIYAASNLESGIPARFSGRGSGTDFALNIHPVEEEDAATYYCQQSNEDPYTFGGGTKLEIKR
B2: Fab combination 17 (antibody, V domains shown)
VH: EVQLQQSGPELVKPGASVKMSCKASGYTFTDYYMKWVKQSHGKSLEWIGDINPNNGETWYNQKFKDKATLTVDKSSSTAYMQLNSLTSEDSAVYYCATRVFDYWGQGTTLTVSS
VL: DIVLTQSPASLAVSLGQRATISCKASQSVDYDGTSYMNWFQQKAGQPPKRLIYAASNLESGIPARFSGRGSGTDFALNIHPVEEEDAATYYCQQSNEDPYTFGGGTKLEIKR
B3: Fab combination 4 (antibody, V domains shown)
VH: EVQLQQSGPELVKPGASVKMSCKASGYTFTDYFMKWVKQSHGKSLEWIGDINPNNGETWYNQKFKDKATLTVDKSSSTAYMQLNSLTSEDSAVYYCATRVFDFWGQGTTLTVSS
VL: DIVLTQSPASLAVSLGQRATISCKASQSVDYDGTSYMNWFQQKAGQPPKRLIYAASNLESGIPARFSGRGSGTDFALNIHPVEEEDAATYYCQQSNEDPYTFGGGTKLEIKR
B4: Fab combination 3 (antibody, V domains shown)
VH: EVQLQQSGPELVKPGASVKMSCKASGYTFTDYFMKWVKQSHGKSLEWIGDINPNNGETWYNQKFKDKATLTVDKSSSTAYMQLNSLTSEDSAVYYCATRYFDYWGQGTTLTVSS
VL: DIVLTQSPASLAVSLGQRATISCKASQSVDYDGTSYMNWFQQKAGQPPKRLIYAASNLESGIPARFSGRGSGTDFALNIHPVEEEDAATYYCQQSNEDPYTFGGGTKLEIKR
B5: Fab combination 23 (antibody, V domains shown)
VH: EVQLQQSGPELVKPGASVKMSCKASGYTFTDYYMKWVKQSHGKSLEWIGDINPNNGETWYNQKFKDKATLTVDKSSSTAYMQLNSLTSEDSAVYYCATRYFDFWGQGTTLTVSS
VL: DIVLTQSPASLAVSLGQRATISCKASQSVDYDGTSYMNWFQQKAGQPPKRLIYAASNLESGIPARFSGRGSGTDFALNIHPVEEEDAATYYCQQSNEDPYTFGGGTKLEIKR
B6: Fab combination 22 (antibody, V domains shown)
VH: EVQLQQSGPELVKPGASVKMSCKASGYTFTDYYMKWVKQSHGKSLEWIGDINPNNGETWYNQKFKDKATLTVDKSSSTAYMQLNSLTSEDSAVYYCATRVFDFWGQGTTLTVSS
VL: DIVLTQSPASLAVSLGQRATISCKASQSVDYDGTSYMNWFQQKAGQPPKRLIYAASNLESGIPARFSGRGSGTDFALNIHPVEEEDAATYYCQQSNEDPYTFGGGTKLEIKR
B7: Fab combination 12 (antibody, V domains shown)
VH: EVQLQQSGPELVKPGASVKMSCKASGYTFTDYIMKWVKQSHGKSLEWIGDINPNNGETWYNQKFKDKATLTVDKSSSTAYMQLNSLTSEDSAVYYCATRVFDFWGQGTTLTVSS
VL: DIVLTQSPASLAVSLGQRATISCKASQSVDYDGTSYMNWFQQKAGQPPKRLIYAASNLESGIPARFSGRGSGTDFALNIHPVEEEDAATYYCQQSNEDPYTFGGGTKLEIKR
B8: Fab combination 8 (antibody, V domains shown)
VH: EVQLQQSGPELVKPGASVKMSCKASGYTFTDYFMKWVKQSHGKSLEWIGDINPNNGETFYNQKFKDKATLTVDKSSSTAYMQLNSLTSEDSAVYYCATRYFDFWGQGTTLTVSS
VL: DIVLTQSPASLAVSLGQRATISCKASQSVDYDGTSYMNWFQQKAGQPPKRLIYAASNLESGIPARFSGRGSGTDFALNIHPVEEEDAATYYCQQSNEDPYTFGGGTKLEIKR
B9: Fab combination 7 (antibody, V domains shown)
VH: EVQLQQSGPELVKPGASVKMSCKASGYTFTDYFMKWVKQSHGKSLEWIGDINPNNGETFYNQKFKDKATLTVDKSSSTAYMQLNSLTSEDSAVYYCATRVFDFWGQGTTLTVSS
VL: DIVLTQSPASLAVSLGQRATISCKASQSVDYDGTSYMNWFQQKAGQPPKRLIYAASNLESGIPARFSGRGSGTDFALNIHPVEEEDAATYYCQQSNEDPYTFGGGTKLEIKR
B10: Fab combination 13 (antibody, V domains shown)
VH: EVQLQQSGPELVKPGASVKMSCKASGYTFTDYIMKWVKQSHGKSLEWIGDINPNNGETWYNQKFKDKATLTVDKSSSTAYMQLNSLTSEDSAVYYCATRYFDFWGQGTTLTVSS
VL: DIVLTQSPASLAVSLGQRATISCKASQSVDYDGTSYMNWFQQKAGQPPKRLIYAASNLESGIPARFSGRGSGTDFALNIHPVEEEDAATYYCQQSNEDPYTFGGGTKLEIKR
B11: Fab combination 15 (antibody, V domains shown)
VH: EVQLQQSGPELVKPGASVKMSCKASGYTFTDYIMKWVKQSHGKSLEWIGDINPNNGETFYNQKFKDKATLTVDKSSSTAYMQLNSLTSEDSAVYYCATRVFDFWGQGTTLTVSS
VL: DIVLTQSPASLAVSLGQRATISCKASQSVDYDGTSYMNWFQQKAGQPPKRLIYAASNLESGIPARFSGRGSGTDFALNIHPVEEEDAATYYCQQSNEDPYTFGGGTKLEIKR
B12: Fab combination 5 (antibody, V domains shown)
VH: EVQLQQSGPELVKPGASVKMSCKASGYTFTDYFMKWVKQSHGKSLEWIGDINPNNGETWYNQKFKDKATLTVDKSSSTAYMQLNSLTSEDSAVYYCATRYFDFWGQGTTLTVSS
VL: DIVLTQSPASLAVSLGQRATISCKASQSVDYDGTSYMNWFQQKAGQPPKRLIYAASNLESGIPARFSGRGSGTDFALNIHPVEEEDAATYYCQQSNEDPYTFGGGTKLEIKR
B13: Fab combination 2 (antibody, V domains shown)
VH: EVQLQQSGPELVKPGASVKMSCKASGYTFTDYFMKWVKQSHGKSLEWIGDINPNNGETWYNQKFKDKATLTVDKSSSTAYMQLNSLTSEDSAVYYCATRVFDYWGQGTTLTVSS
VL: DIVLTQSPASLAVSLGQRATISCKASQSVDYDGTSYMNWFQQKAGQPPKRLIYAASNLESGIPARFSGRGSGTDFALNIHPVEEEDAATYYCQQSNEDPYTFGGGTKLEIKR
B14: Fab combination 20 (antibody, V domains shown)
VH: EVQLQQSGPELVKPGASVKMSCKASGYTFTDYYMKWVKQSHGKSLEWIGDINPNNGETFYNQKFKDKATLTVDKSSSTAYMQLNSLTSEDSAVYYCATRYFDFWGQGTTLTVSS
VL: DIVLTQSPASLAVSLGQRATISCKASQSVDYDGTSYMNWFQQKAGQPPKRLIYAASNLESGIPARFSGRGSGTDFALNIHPVEEEDAATYYCQQSNEDPYTFGGGTKLEIKR
B15: Fab combination 11 (antibody, V domains shown)
VH: EVQLQQSGPELVKPGASVKMSCKASGYTFTDYIMKWVKQSHGKSLEWIGDINPNNGETWYNQKFKDKATLTVDKSSSTAYMQLNSLTSEDSAVYYCATRYFDYWGQGTTLTVSS
VL: DIVLTQSPASLAVSLGQRATISCKASQSVDYDGTSYMNWFQQKAGQPPKRLIYAASNLESGIPARFSGRGSGTDFALNIHPVEEEDAATYYCQQSNEDPYTFGGGTKLEIKR
B16: Fab combination 16 (antibody, V domains shown)
VH: EVQLQQSGPELVKPGASVKMSCKASGYTFTDYIMKWVKQSHGKSLEWIGDINPNNGETFYNQKFKDKATLTVDKSSSTAYMQLNSLTSEDSAVYYCATRYFDFWGQGTTLTVSS
VL: DIVLTQSPASLAVSLGQRATISCKASQSVDYDGTSYMNWFQQKAGQPPKRLIYAASNLESGIPARFSGRGSGTDFALNIHPVEEEDAATYYCQQSNEDPYTFGGGTKLEIKR
B17: parental Fab (TnT M-7) (antibody, V domains shown)
VH: EVQLQQSGPELVKPGASVKMSCKASGYTFTDYYMKWVKQSHGKSLEWIGDINPNNGETFYNQKFKDKATLTVDKSSSTAYMQLNSLTSEDSAVYYCATRVFDYWGQGTTLTVSS
VL: DIVLTQSPASLAVSLGQRATISCKASQSVDYDGTSYMNWFQQKAGQPPKRLIYAASNLESGIPARFSGRGSGTDFALNIHPVEEEDAATYYCQQSNEDPYTFGGGTKLEIKR
B18: Fab combination 18 (antibody, V domains shown)
VH: EVQLQQSGPELVKPGASVKMSCKASGYTFTDYYMKWVKQSHGKSLEWIGDINPNNGETFYNQKFKDKATLTVDKSSSTAYMQLNSLTSEDSAVYYCATRYFDYWGQGTTLTVSS
VL: DIVLTQSPASLAVSLGQRATISCKASQSVDYDGTSYMNWFQQKAGQPPKRLIYAASNLESGIPARFSGRGSGTDFALNIHPVEEEDAATYYCQQSNEDPYTFGGGTKLEIKR
B19: Fab combination 1 (antibody, V domains shown)
VH: EVQLQQSGPELVKPGASVKMSCKASGYTFTDYFMKWVKQSHGKSLEWIGDINPNNGETFYNQKFKDKATLTVDKSSSTAYMQLNSLTSEDSAVYYCATRVFDYWGQGTTLTVSS
VL: DIVLTQSPASLAVSLGQRATISCKASQSVDYDGTSYMNWFQQKAGQPPKRLIYAASNLESGIPARFSGRGSGTDFALNIHPVEEEDAATYYCQQSNEDPYTFGGGTKLEIKR
B20: Fab combination 19 (antibody, V domains shown)
VH: EVQLQQSGPELVKPGASVKMSCKASGYTFTDYYMKWVKQSHGKSLEWIGDINPNNGETFYNQKFKDKATLTVDKSSSTAYMQLNSLTSEDSAVYYCATRVFDFWGQGTTLTVSS
VL: DIVLTQSPASLAVSLGQRATISCKASQSVDYDGTSYMNWFQQKAGQPPKRLIYAASNLESGIPARFSGRGSGTDFALNIHPVEEEDAATYYCQQSNEDPYTFGGGTKLEIKR
B21: Fab combination 9 (antibody, V domains shown)
VH: EVQLQQSGPELVKPGASVKMSCKASGYTFTDYIMKWVKQSHGKSLEWIGDINPNNGETFYNQKFKDKATLTVDKSSSTAYMQLNSLTSEDSAVYYCATRVFDYWGQGTTLTVSS
VL: DIVLTQSPASLAVSLGQRATISCKASQSVDYDGTSYMNWFQQKAGQPPKRLIYAASNLESGIPARFSGRGSGTDFALNIHPVEEEDAATYYCQQSNEDPYTFGGGTKLEIKR

The experiment deals with cardiac troponin T (recombinant human) (human). The experiment is described as follows: SPR, 37C.
The Kd is the concentration at which binding is half-saturated. With B1, the Kd stood at 1600 pM.
As for B2, the Kd is 540 pM.
To B3 belongs 2.7 pM; to B4, 370 pM.
Regarding B5, the equilibrium dissociation constant (Kd) is 1200 pM.
B6: the Kd was 0.0038 pM.
For the molecule B7, the Kd came to 320 pM.
Turning to B8, the equilibrium dissociation constant (Kd) is 200 pM.
With B9, the Kd was determined as 450 pM.
As for B10, the Kd was determined as 620 pM.
As for B11, the Kd was 1100 pM.
To B12 belongs 230 pM; to B13, 460 pM; to B14, 1100 pM.
Turning to B15, the Kd is 1000 pM.
As for B16, the figure is 3400 pM; as for B17, 580 pM; as for B18, 1600 pM.
On to B19, for which the Kd turned out to be 620 pM.
On to B20, for which the Kd came out at 460 pM.
As for B21, the equilibrium dissociation constant (Kd) was 1200 pM.
